# Experimental data from patent publication US9555344.
# Tests used:
# Concanavalin A [1] = biological target: Concanavalin A (UniProt P02866); assay: Con A Sepharose affinity chromatography (Con A assay); bound albumin as percent of load
# Concanavalin A [2] = biological target: Concanavalin A (UniProt P02866); assay: Con A Sepharose affinity chromatography, 100 mg rHA loaded; albumin monomer in eluate by GP-HPLC as percent of load; sample SP-FF2 flow through & washings
# Concanavalin A [3] = biological target: Concanavalin A (UniProt P02866); assay: Con A Sepharose affinity chromatography, 100 mg rHA loaded; albumin monomer in eluate by GP-HPLC as percent of load; sample final product
# Concanavalin A [4] = biological target: Concanavalin A (UniProt P02866); assay: Con A Sepharose affinity chromatography, 100 mg rHA loaded; albumin monomer in eluate by GP-HPLC as percent of load; sample PBA flow through & washings
Substance,content of Con A binding material (Concanavalin A [1]),ConA-binding rHA (% of load) (Concanavalin A [2]),ConA-binding rHA (% of load) (Concanavalin A [3]),ConA-binding rHA (% of load) (Concanavalin A [4])
rHA used to spike the Pichia culture medium (from UniProt P02768 25-609),0.57 % (w/w),,,
"recombinant human albumin (rHA) from a non-mutant (non-pmt1) Saccharomyces cerevisiae strain, purified by the process of Example 1 (from UniProt P02768 25-609)",,0.32 % of load,0.28 % of load,0.55 % of load
rHA purified from the Pichia pastoris culture medium in accordance with the process of Example 1 (from UniProt P02768 25-609),0.22 % (w/w),,,
